Results on 167 variants are retold here after the RNAGym collection of RNA variant scans (doi:10.1073/pnas.2313332121).

Variants at the floor of the assay were thinned out. Some results are limits rather than exact numbers.

B1: TPR 5TU (parent)
chain: GGAUCUUCUCGAUCUAACAAAAAAGACAAAUCUGCCACAAAGCUUGAGAGCAUCUUCGGAUGCAGAGGCGGCAGCCUUCGGUGGCGCGAUAGCGCCAACGUUCUCAACUAUGACACGCAAAACGCGUGCUCCGUUGAAUGGAGUUUAUCAUG

In this data set the parent is B1. Briefly: polymerase ribozyme fitness, log enrichment relative to wild type (log ratio); higher = more active; in vitro selection for triplet polymerase activity. Summed up: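 Mutant libraries of both subunits of a heterodimeric triplet polymerase ribozyme were PCR-built, transcribed, and selected once in triplicate, with frozen incubation at −7 °C and capture of gel-excised extended constructs on streptavidin beads before RT-PCR. Illumina sequencing of input and output libraries was filtered to genotypes with ≥10 input reads and ≥1 read per output. Fitness is the logarithm of genotype enrichment over wild-type enrichment, using inverse-variance-weighted replicate averages. The logarithm is base 2.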
Turning to G92U C116U, the “polymerase ribozyme fitness (log ratio)” value is 0.0946. As for C93U A97C G140A, the “polymerase ribozyme fitness (log ratio)” value is ≤ -4.2. Next, G94A A106G C131G: ≤ -4.2; G92U G136C: -3.44; C93G A97G G140C A147U C149G: ≤ -4.2.

As to G94C C129G, the “polymerase ribozyme fitness (log ratio)” value was -3.39. As for C93U C95U C149A, the figure is ≤ -4.2; as for G94C A142C, -1.37; as for C95U G100U U104G C114U G141C A150C, ≤ -4.2. As for G94A C114U, the figure is -1.93; as for G92U G94C A106G C123A U145C, -1.97. Next, C93G U145G: -2.53; G94U G143U: -3.64; G94A C116U A122U G136A: -0.164. C95A C99A C123G: the “polymerase ribozyme fitness (log ratio)” value was -1.33. As for C93U U109C, the figure is ≤ -4.2; as for C93U C131A, -2.97. As for C96A C125U U130C, the figure is -0.299.

In the case of G94A A110G, the “polymerase ribozyme fitness (log ratio)” value is -2.35. Next, G94A C105U C116U C125G: -0.0334; C93A A113U: -4.07; G92U C108U C125G G140C: ≤ -4.2. With G94C C116U, the “polymerase ribozyme fitness (log ratio)” value was -0.0318. For the variant G94C A97G A121U A122U, the “polymerase ribozyme fitness (log ratio)” value is -0.691.

As for C93U C149U, the “polymerase ribozyme fitness (log ratio)” value was -1.57. For C93U C149G, the “polymerase ribozyme fitness (log ratio)” value was -4.08. As for C93A A120U, the figure is -3.4; as for G92U U148A, -2.71. Next, C93G C108G A142C C149U U151G: ≤ -4.2; C93A G124A: -2.59. As for C96A C125U G143A, the figure is -3.57; as for G92U G133U, -3.41. C93U C116U A122U: the “polymerase ribozyme fitness (log ratio)” value is -1.45. As for G92U G141A, the figure is -1.81.

Turning to G92U G141C, the “polymerase ribozyme fitness (log ratio)” value was -1.87.

With C96A G143C, the “polymerase ribozyme fitness (log ratio)” value is -2.38. As for C96A A142U, the figure is -1.24; as for G92U C95U A137U, -4.11. As for C93U C103A C105U A120G U134C, the figure is -3.94; as for G94A C105A, -1.65; as for C93U U104G, -1.8. On to C93U G143C, for which the “polymerase ribozyme fitness (log ratio)” value was -3.12.

On to C95U U111G, for which the “polymerase ribozyme fitness (log ratio)” value was ≤ -4.2. As for C95U G141A, the figure is 0.432. As for G92U C96A G136C, the figure is -3.56; as for C96A U139C, -3.61; as for G94U G141C, -1.45. Next, C96A U101C U109A C118A: -1.54. Turning to G94C U101C, the “polymerase ribozyme fitness (log ratio)” value was -0.185. As to C93U A97U C116A G133A, the “polymerase ribozyme fitness (log ratio)” value was ≤ -4.2. As for C95A C96A C116U, the figure is -0.649; as for C95U C125U A142C, -3.48. Regarding G94U A147U, the “polymerase ribozyme fitness (log ratio)” value is 0.0631. Next, G94A C96U C99G U144G: ≤ -4.2; C93A U102C C105A C125G G143U U144A: ≤ -4.2; C96G A150U: 0.451. For G92U C93U, the “polymerase ribozyme fitness (log ratio)” value is -2.13. In the case of C96A U151C, the “polymerase ribozyme fitness (log ratio)” value was -3.24. As for C95U A142G, the figure is -1.66; as for C95U A142C, -1.54; as for G94A C108A A137C, ≤ -4.2.

Turning to C93U A97U C125A, the “polymerase ribozyme fitness (log ratio)” value was -2.13. As for C93U A113U A119C G140U, the figure is -3.82; as for C93G U101C, -3.2; as for C93A A142U C149A, ≤ -4.2.

C96A G128U: the “polymerase ribozyme fitness (log ratio)” value is -2.45. As for C93U C125A, the figure is -2.69; as for C93U C125G, -1.79. As for C96G A119U, the figure is -2.52. For C93U A142U, the “polymerase ribozyme fitness (log ratio)” value is -1.68. Next, C93U A142C: -0.842; C93U C105U: -2.55; C93U G117A A142C: -4.07.

As for C95U A142U U145G, the “polymerase ribozyme fitness (log ratio)” value was -2.47.

Consider C95A C96A, for which the “polymerase ribozyme fitness (log ratio)” value is -2.33.

In the case of C93G A150G, the “polymerase ribozyme fitness (log ratio)” value is -4.14.

As for C93G A97U, the “polymerase ribozyme fitness (log ratio)” value was -3.39. As for C93U G140U, the figure is -3.59. Next, C95U A150G: -2.25. As for C96A, the figure is -0.52; as for C96G, -0.496. With C93U U134A, the “polymerase ribozyme fitness (log ratio)” value is -4.01. Next, C96A C116G G136C: -3.22; G94C U104G: -1.24; C96A G112C: -3.31. Next, C93U C118A C125A U139C: -4.16; C96A G126A U139G U151C: ≤ -4.2; C93U U102G G117U U135A: ≤ -4.2.

Turning to G92U U101G, the “polymerase ribozyme fitness (log ratio)” value was 0.0893. Consider C93U U144G, for which the “polymerase ribozyme fitness (log ratio)” value was -0.253. As for C93U U144C, the “polymerase ribozyme fitness (log ratio)” value is -1.07. Next, C93G G140C: ≤ -4.2. Next, C96A G126C: -0.953. Next, C93A C132A: ≤ -4.2; C93A U101G: -3.29. Take G92U C95A A115G A147C: the “polymerase ribozyme fitness (log ratio)” value was ≤ -4.2. With C96A C132G, the “polymerase ribozyme fitness (log ratio)” value is -3.72.

For the variant C93U A119G G143U U145G, the “polymerase ribozyme fitness (log ratio)” value is -3.92. Turning to G92U C96U A97U A115U A121U, the “polymerase ribozyme fitness (log ratio)” value is -2.82. Next, C93G C108U C116G: ≤ -4.2; C93G A147U: -1.74; C93A U130A: ≤ -4.2.

For C93U A107U, the “polymerase ribozyme fitness (log ratio)” value was -4.04. As for C93G A115G C131U, the figure is -3.48; as for G94U C96U, -0.719; as for C93A C96G A97C U148A, ≤ -4.2.

For G92U U101A A119U G143U, the “polymerase ribozyme fitness (log ratio)” value was -3.62. As for C96G A107G, the figure is ≤ -4.2. As for G94A U146G, the figure is -1.25. Next, C96A A137U: -3.87; C95U U102G: -1.19; C95U U102C: -1.06.

Turning to C93A C105U, the “polymerase ribozyme fitness (log ratio)” value is -2.67. In the case of C93G C105A G136U, the “polymerase ribozyme fitness (log ratio)” value was ≤ -4.2. As for G94A C116G C123G, the figure is 0.258; as for C93U G94U A107C, ≤ -4.2. As for C93U A106C C129G G143A, the figure is -3.64; as for C96G A121C C129U, -0.0949; as for C93U C103U A107C C125A, ≤ -4.2. Next, C93U G133C: -2.76; G94C A107G: -3.89.

In the case of C93A U101C G124U, the “polymerase ribozyme fitness (log ratio)” value is -2.74. As for C93U U101A, the figure is -2.19; as for C93U G141A U146G, -3.48; as for C93A A121C U148C, -2.37. As for G94U A150U, the figure is -0.849; as for G94U A150G, -2.5; as for C93A A98U C125G C131U, -2.4. As for G92U C125U, the figure is -1.4; as for C95U A98G C105U, 0.768; as for C96A U144A, -0.177. C96G A142C: the “polymerase ribozyme fitness (log ratio)” value is -1.82. Turning to C96A U135C, the “polymerase ribozyme fitness (log ratio)” value was -1.91.

As for C95U C131G, the “polymerase ribozyme fitness (log ratio)” value is -3.24. Next, G94A G124A A150U: 0.987.

On to C93A A97U G128A, for which the “polymerase ribozyme fitness (log ratio)” value is ≤ -4.2. With C93G A97U A121G, the “polymerase ribozyme fitness (log ratio)” value is ≤ -4.2. As for G94U G128U U139A G141A, the figure is ≤ -4.2.

As to C93A G126A A137G, the “polymerase ribozyme fitness (log ratio)” value is -2.09. With C93A A106C A120U, the “polymerase ribozyme fitness (log ratio)” value was -2.8.

Turning to C93U G141U, the “polymerase ribozyme fitness (log ratio)” value is -0.142. Next, C93U G141C: -1.55. Turning to C93U C116U C123A, the “polymerase ribozyme fitness (log ratio)” value was -1.16. As for C96G A122G U139G, the figure is 0.0535. Next, G94U U104C G117U U134A: -2.96; C93G C105A A107G G141U: ≤ -4.2. As for C93G G94U C95A G128A, the figure is ≤ -4.2; as for C95U A107G, -4.16.

As to G92U C93U A138C, the “polymerase ribozyme fitness (log ratio)” value is ≤ -4.2. As for C96A A120U G140U, the figure is -3.09; as for C95G C96U A120U A122C U139G, -1.86. As for C93G U102G, the figure is ≤ -4.2. In the case of C93A U134C, the “polymerase ribozyme fitness (log ratio)” value was -1.59. Next, C95U C116A C129G U148G: ≤ -4.2; C93A U127A G133U G140U: ≤ -4.2.

Consider C93A G124C U127C G133C U135A U148G, for which the “polymerase ribozyme fitness (log ratio)” value was ≤ -4.2. As for C96G A98U U144G, the figure is -0.0548. Take G94C G126A C132A: the “polymerase ribozyme fitness (log ratio)” value is -2.93.

As for C93U A98G, the “polymerase ribozyme fitness (log ratio)” value was -1.59.

C96A C105G C125A: the “polymerase ribozyme fitness (log ratio)” value was -2.29.

Take G94C A97U G136C: the “polymerase ribozyme fitness (log ratio)” value is -3.35. For the variant G94C G126A, the “polymerase ribozyme fitness (log ratio)” value was determined as 0.311. Next, C93G A107G: ≤ -4.2; G92U U104G C132U: -2.5. With C95A A98G, the “polymerase ribozyme fitness (log ratio)” value is 0.372. As for G94C U101A G152A, the “polymerase ribozyme fitness (log ratio)” value was -2.72. Turning to C93G C108U, the “polymerase ribozyme fitness (log ratio)” value is -3.94.
